# According to US20170283484A1 (UNITED KINGDOM RESEARCH AND INNOVATION, published 2017):
# Like-named read-outs stand apart in the source and are kept apart here.
# B1: B2.1A scFv (scFv)
# scFv: DANSQVQLQESGTELVKPGASVKLSCKASGYTFTNYWMHWVKQRPGQGLEWIGEINPSDGHTNYNEKFKSKATLTVDKSSSTAYMQLSSLTSEDSAVYYCARPWAFGNYGAWFAYWGQGTLVTVSAGGSGGSGGGGSGGGGSGGGASDIVMTQSPKFMSTSVGDRVSITCKASQNVRTAVAWYQQKPGQSPKALIYLASSRHTGVPDRFTGSGSGTDFTLTISNVQSEDLADYFCLQHWNYPYTFGGGTKLEIKSRHHHHHH
# notes: also called single-chain variable fragment (scFv) of B2.1A; Ab2
# B2: B2.1A antibody (antibody, V domains shown)
# VH: QVQLQESGTELVKPGASVKLSCKASGYTFTNYWMHWVKQRPGQGLEWIGEINPSDGHTNYNEKFKSKATLTVDKSSSTAYMQLSSLTSEDSAVYYCARPWAFGNYGAWFAYWGQGTLVTVSA
# VL: DIVMTQSPKFMSTSVGDRVSITCKASQNVRTAVAWYQQKPGQSPKALIYLASSRHTGVPDRFTGSGSGTDFTLTISNVQSEDLADYFCLQHWNYPYTFGGGTKLEIKR
# notes: also called anti-Id B2.1A; Ab2
# B3: AP33 mutant YH50A (antibody, V domains shown)
# VH: EVQLQESGPSLVKPSQTLSLTCSVTGDSITSGYWNWIRKFPGNKLEYMGAISYSGSTYYNLSLRSRISITRDTSKNQYYLQLNSVTTEDTATYYCALITTTTYAMDYWGQGTSVTVS
# VL: NIVLTQSPVSLAVSLGQRATISCRASESVDGYGNSFLHWFQQKPGQPPKLLIYLASNLNSGVPARFSGSGSRTDFTLTIDPVEADDAATYYCQQNNVDPWTFGGGTKLEIK
# B4: AP33 mutant YH100A (antibody, V domains shown)
# VH: EVQLQESGPSLVKPSQTLSLTCSVTGDSITSGYWNWIRKFPGNKLEYMGYISYSGSTYYNLSLRSRISITRDTSKNQYYLQLNSVTTEDTATYYCALITTTTAAMDYWGQGTSVTVS
# VL: NIVLTQSPVSLAVSLGQRATISCRASESVDGYGNSFLHWFQQKPGQPPKLLIYLASNLNSGVPARFSGSGSRTDFTLTIDPVEADDAATYYCQQNNVDPWTFGGGTKLEIK
# How the values were obtained:
# [1] = target: T1, AP33 antibody (wild type mouse monoclonal); assay: SPR, B2.1A scFv amine-coupled to CM5 chip, AP33 injected, single-cycle kinetics
# T1 construct: also called WT AP33; Ab1
# [2] = target: T1, AP33 antibody (wild type mouse …)
# [3] = target: T1, AP33 antibody (wild type mouse …); assay: SPR, B2.1A scFv amine-coupled to CM4 chip, AP33 injected, single-cycle kinetics
# AP33 light-chain alone = target: T2, AP33 light-chain alone (Mus musculus (Mouse), UniProt P01661 21-131); assay: Ab2 binding screen
# T2 construct: also called AP33 LC; LC
# [4] = target: T1, AP33 antibody (wild type mouse …); assay: Ab2 binding screen
# [5] = target: HCV E2 envelope glycoprotein (hepatitis C virus, UniProt P27958 384-746); assay: ELISA of E2 on AP33 alanine mutants
# HCV E2 envelope glycoprotein, sequence (P27958 384-746 limits assumed): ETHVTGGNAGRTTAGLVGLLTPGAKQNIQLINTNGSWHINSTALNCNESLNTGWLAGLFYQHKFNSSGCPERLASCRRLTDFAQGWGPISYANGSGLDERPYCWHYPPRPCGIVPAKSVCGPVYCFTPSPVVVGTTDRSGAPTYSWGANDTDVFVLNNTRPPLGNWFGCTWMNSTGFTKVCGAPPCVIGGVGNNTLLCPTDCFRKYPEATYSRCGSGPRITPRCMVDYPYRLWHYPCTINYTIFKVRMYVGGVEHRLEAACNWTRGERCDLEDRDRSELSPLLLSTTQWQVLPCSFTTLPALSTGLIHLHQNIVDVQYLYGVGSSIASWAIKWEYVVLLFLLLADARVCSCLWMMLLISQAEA
binder,measurement,setting,value
B1,Kd,[1],28.6 nM
same,koff,[1],0.000321 s⁻¹
same,kon,[1],11200 M⁻¹ s⁻¹
same,Kd,[2],8 nM
same,koff,[2],0.00039 s⁻¹
same,kon,[2],48700 M⁻¹ s⁻¹
same,Kd,[3],20.7 nM
same,koff,[3],0.000243 s⁻¹
same,kon,[3],11800 M⁻¹ s⁻¹
B2,binding result,AP33 light-chain alone,no binding
same,binding result,[4],binds
B3,reduction of binding relative to WT AP33,[5],90%
B4,reduction of binding relative to WT AP33,[5],90%
